# IntAct's records for PubMed 20835227
# B1: DNA replication regulator SLD3 (Saccharomyces cerevisiae), P53135 (parent)
# chain: METWEVIASVKEATKGLDLSLDHPLIIKSEDVPSNILQLLQQKNRRQLKHICMKSRKEYFLLEEYGPGFWVKWPYNYFNGYSLPERRTEVVTTVERERAKRETLKTWDELKFKELLHLWSEEPKGSCKLEKDKDLKLDMNPPDMKGESKINDYYSDPKEYIESKYYDALFSIHTPLAYFVKSNLVRLKNTCRTKYGSDSYKIAYQAMLQKFLLSIVQFKDRHDNRLLLEPFSSPIADEKRKNCLTKFVIQDENKNSSTIADLCVVLKSREIKLQILLLLEIIGLNDLDWNFRDFEKKYKLKLKKRSLNLTKKGLVRRRSKKKTSEKDKGIERITTSLDYCEQLDLYLDRACILDILLSSETPNPDAIEASNGTIQEHKKNILDKSKEASLVGFINYVLIPYFNKKVPHAVEFIIQKLKGPSMRPKRALKKVNDSTNVSSPNTVETYNRLSTSQRASRSSIINSVPSSPALRRVDANLFSRKSIASPTPELLNSRTNSNLNEFLESETRSLKRPSQLGRTKSDLTMNHLQKRQFSVSDLSTTRVPNSSTITLKTPFSHSTINAYKTMNNSFRRVGKRKDINETIRLHERVDSEENVQVQATPAVKKRTVTPNKKAQLQSIIESPLNFKDDDTHEGRKNTSNITSTPTNKPPENSSKRRVRRRLFAPEST
# partner: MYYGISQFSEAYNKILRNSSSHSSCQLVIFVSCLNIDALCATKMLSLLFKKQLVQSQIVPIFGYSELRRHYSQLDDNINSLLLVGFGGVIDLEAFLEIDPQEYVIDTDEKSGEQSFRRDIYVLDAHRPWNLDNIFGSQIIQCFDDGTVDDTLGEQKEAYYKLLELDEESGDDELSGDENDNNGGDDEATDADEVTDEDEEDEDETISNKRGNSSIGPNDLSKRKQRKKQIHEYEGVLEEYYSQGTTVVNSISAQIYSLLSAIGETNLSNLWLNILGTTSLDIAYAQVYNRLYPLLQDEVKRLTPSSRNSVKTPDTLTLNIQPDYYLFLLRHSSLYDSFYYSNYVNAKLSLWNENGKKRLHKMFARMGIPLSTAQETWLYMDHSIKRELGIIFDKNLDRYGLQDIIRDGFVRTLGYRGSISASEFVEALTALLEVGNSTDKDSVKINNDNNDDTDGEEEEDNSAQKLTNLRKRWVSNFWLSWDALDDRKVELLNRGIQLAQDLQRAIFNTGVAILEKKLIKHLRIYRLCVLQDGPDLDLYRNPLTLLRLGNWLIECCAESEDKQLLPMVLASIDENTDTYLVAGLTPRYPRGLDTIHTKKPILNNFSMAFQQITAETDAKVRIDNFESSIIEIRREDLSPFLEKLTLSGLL
# Variants of: B1
# Conditions: with cdc45_yeast CDC45, Q08032
row,effect of a mutation on the interaction,Variant
1,disrupting interaction,S306D;T310D
